B1: Bispecific clone GS388 (9E3-17aa-3H4) (bispecific antibody)
chain: QLQLVEFGGGLVQAGGSLRLSCAASGSIFRGNAMVWYRQAPGKERELVATITNGGSTNYADSVKGRFTISRDNAKNTVYLQMNSLKPEDTAIYYCNDVIRGESGIYYPLNYWGQGTQVTVSSGGSEGGGSGGGGESGGGQVQFVESGGGLVQPGGSLRLSCAVSGSTFVVKHFAWFRQPPGNRRELVAATRGEGTTYYRDSVMGRFTISSDNPENTVYLQMTSLQPEDTAVYFCNVRSPGGEEFWGKGTLVTVSS
B2: 9E3 single domain antibody (VHH)
VHH: QLQLVEFGGGLVQAGGSLRLSCAASGSIFRGNAMVWYRQAPGKERELVATITNGGSTNYADSVKGRFTISRDNAKNTVYLQMNSLKPEDTAIYYCNDVIRGESGIYYPLNYWGQGTQVTVSS
B3: 3H4 single domain antibody (VHH)
VHH: QVQFVESGGGLVQPGGSLRLSCAVSGSTFVVKHFAWFRQPPGNRRELVAATRGEGTTYYRDSVMGRFTISSDNPENTVYLQMTSLQPEDTAVYFCNVRSPGGEEFWGKGTLVTVSS

Experiments:
[1] = target: Recombinant Human PD-1 (R&D Systems Inc) (human) (UniProt Q15116); experiment: ELISA blocking, PD-1 coated, biotinylated PD-L1Fc, streptavidin-HRP; antibody at 1000 ng/ml
UniProt Q15116, sequence (Q15116 25-167 limits assumed): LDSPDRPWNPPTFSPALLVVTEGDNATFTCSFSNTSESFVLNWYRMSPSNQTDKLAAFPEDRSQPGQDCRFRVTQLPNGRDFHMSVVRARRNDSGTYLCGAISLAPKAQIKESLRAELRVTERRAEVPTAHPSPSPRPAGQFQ

[2] = target: Recombinant Human PD-1 (R&D Systems Inc) (human) (UniProt Q15116); experiment: ELISA blocking, PD-1 coated, biotinylated PD-L1Fc, streptavidin-HRP; antibody at 1 ng/ml
[3] = target: Recombinant Human PD-1 (R&D Systems Inc) (human) (UniProt Q15116); experiment: ELISA blocking, PD-1 coated, biotinylated PD-L1Fc, streptavidin-HRP; antibody at 100 ng/ml
[4] = target: Recombinant Human PD-1 (R&D Systems Inc) (human) (UniProt Q15116); experiment: ELISA blocking, PD-1 coated, biotinylated PD-L1Fc, streptavidin-HRP; antibody at 10 ng/ml
[5] = target: Recombinant Human PD-1 (R&D Systems Inc) (human) (UniProt Q15116); experiment: second ELISA blocking assay, PD-1 / PD-L1Fc; reference: unlinked mix of 9E3 and 3H4
[6] = target: Recombinant Human PD-1 (R&D Systems Inc) (human) (UniProt Q15116); experiment: ELISA blocking, PD-1 coated, biotinylated PD-L1Fc, streptavidin-HRP; antibody at 10000 ng/ml
[7] = target: Recombinant Human PD-1 (R&D Systems Inc) (human) (UniProt Q15116); experiment: ELISA blocking, PD-1 coated, biotinylated PD-L1Fc, streptavidin-HRP; antibody at 0.01 ng/ml
[8] = target: Recombinant Human PD-1 (R&D Systems Inc) (human) (UniProt Q15116); experiment: ELISA blocking, PD-1 coated, biotinylated PD-L1Fc, streptavidin-HRP; antibody at 0.1 ng/ml
[9] = target: Recombinant Human PD-1 (R&D Systems Inc) (human) (UniProt Q15116); experiment: ELISA blocking, PD-1 coated, biotinylated PD-L1Fc, streptavidin-HRP; antibody at 0.001 ng/ml

Binder	blocking ELISA signal (PD-L1Fc bound to PD-1) [1]	blocking ELISA signal (PD-L1Fc bound to PD-1) [2]	blocking ELISA signal (PD-L1Fc bound to PD-1) [3]	blocking ELISA signal (PD-L1Fc bound to PD-1) [4]	fold increase in blocking against a simple mix of 9E3 and 3H4 [5]	blocking ELISA signal (PD-L1Fc bound to PD-1) [6]	blocking ELISA signal (PD-L1Fc bound to PD-1) [7]	blocking ELISA signal (PD-L1Fc bound to PD-1) [8]	blocking ELISA signal (PD-L1Fc bound to PD-1) [9]
B1	0.103	1.09	0.197	0.947	> 10 fold	0.102	1.12	1.1	1.11
B2	0.457	1.06	0.965	1.09		0.104	1.11	1.08	1.17
B3	0.927	1.06	0.964	1.1		0.833	1.08	1.07	1.11

From EP3733708A1
